Test results: patent publication US7919236 (GIVAUDAN, dated 2011)
Values belong to the molecule of their own block, whether it stands above or below them.

How the values were obtained:
Assay in all cases: cell-based or functional assay
[1] = biological target: T1, mouse T2R5 bitter receptor (mouse, UniProt Q9JKT4 1-300)
T1 sequence (looked up): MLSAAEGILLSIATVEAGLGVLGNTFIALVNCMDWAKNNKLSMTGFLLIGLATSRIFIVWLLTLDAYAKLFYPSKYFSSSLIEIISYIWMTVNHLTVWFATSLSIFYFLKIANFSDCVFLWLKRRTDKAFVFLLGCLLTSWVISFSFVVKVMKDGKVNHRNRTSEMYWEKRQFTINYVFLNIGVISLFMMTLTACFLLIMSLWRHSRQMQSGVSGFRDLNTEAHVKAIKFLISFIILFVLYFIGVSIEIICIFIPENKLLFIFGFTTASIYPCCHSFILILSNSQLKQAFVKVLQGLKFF

[2] = biological target: human TAS2R16 bitter receptor (human) (UniProt Q9NYV7)
[3] = biological target: human TAS1R2/TAS1R3 sweet taste receptor heterodimer (human) (UniProt Q8TE23)
[4] = biological target: human TAS1R2/TAS1R3 sweet taste receptor heterodimer (human, UniProt Q8TE23 20-839; Q7RTX0 21-852)
Chain of human TAS1R2/TAS1R3 sweet taste receptor heterodimer (Q8TE23 20-839, chain 1 of 2): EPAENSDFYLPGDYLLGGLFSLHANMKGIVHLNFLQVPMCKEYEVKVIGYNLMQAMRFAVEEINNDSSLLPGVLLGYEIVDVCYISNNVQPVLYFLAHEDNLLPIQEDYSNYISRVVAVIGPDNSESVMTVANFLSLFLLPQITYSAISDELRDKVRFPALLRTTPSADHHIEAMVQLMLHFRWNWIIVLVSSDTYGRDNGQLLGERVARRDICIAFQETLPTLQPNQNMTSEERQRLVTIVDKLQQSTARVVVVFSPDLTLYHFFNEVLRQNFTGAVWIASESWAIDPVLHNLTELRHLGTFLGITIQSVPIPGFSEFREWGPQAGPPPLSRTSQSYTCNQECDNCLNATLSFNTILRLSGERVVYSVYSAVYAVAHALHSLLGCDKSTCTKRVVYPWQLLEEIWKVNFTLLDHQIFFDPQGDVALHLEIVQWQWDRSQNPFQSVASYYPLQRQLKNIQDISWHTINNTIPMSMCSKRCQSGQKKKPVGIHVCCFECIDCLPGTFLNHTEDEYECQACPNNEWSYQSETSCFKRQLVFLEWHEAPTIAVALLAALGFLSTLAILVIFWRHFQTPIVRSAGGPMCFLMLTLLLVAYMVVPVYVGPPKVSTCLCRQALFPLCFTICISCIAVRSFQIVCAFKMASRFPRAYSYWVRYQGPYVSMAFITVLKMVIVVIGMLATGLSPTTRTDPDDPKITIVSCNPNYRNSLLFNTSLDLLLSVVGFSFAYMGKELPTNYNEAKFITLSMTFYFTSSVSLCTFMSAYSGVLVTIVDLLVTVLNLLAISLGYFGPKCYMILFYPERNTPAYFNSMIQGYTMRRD
Chain of human TAS1R2/TAS1R3 sweet taste receptor heterodimer (Q7RTX0 21-852, chain 2 of 2): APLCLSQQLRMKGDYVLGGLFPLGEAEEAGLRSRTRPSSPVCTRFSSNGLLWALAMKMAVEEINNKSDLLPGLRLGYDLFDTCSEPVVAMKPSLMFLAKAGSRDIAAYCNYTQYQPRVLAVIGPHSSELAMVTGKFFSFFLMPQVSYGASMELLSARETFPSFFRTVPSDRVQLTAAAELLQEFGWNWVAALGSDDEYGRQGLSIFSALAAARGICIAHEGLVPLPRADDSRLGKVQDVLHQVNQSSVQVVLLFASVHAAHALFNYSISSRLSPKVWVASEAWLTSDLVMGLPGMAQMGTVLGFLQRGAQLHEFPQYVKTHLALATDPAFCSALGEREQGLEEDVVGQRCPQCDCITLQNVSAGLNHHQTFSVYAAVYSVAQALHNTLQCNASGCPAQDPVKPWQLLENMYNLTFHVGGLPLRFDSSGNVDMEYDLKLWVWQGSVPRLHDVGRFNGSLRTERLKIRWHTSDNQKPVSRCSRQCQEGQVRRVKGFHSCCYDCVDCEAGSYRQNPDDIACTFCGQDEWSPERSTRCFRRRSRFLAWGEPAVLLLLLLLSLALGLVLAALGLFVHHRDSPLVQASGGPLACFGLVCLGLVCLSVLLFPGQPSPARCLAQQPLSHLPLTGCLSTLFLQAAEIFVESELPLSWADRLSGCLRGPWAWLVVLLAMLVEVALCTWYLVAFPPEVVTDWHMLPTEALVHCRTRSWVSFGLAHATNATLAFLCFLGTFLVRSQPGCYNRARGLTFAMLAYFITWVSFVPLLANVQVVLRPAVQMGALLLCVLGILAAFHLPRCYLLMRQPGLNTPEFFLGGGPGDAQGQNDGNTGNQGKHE

Chain of human TAS2R16 bitter receptor (human) (Q9NYV7 whole entry): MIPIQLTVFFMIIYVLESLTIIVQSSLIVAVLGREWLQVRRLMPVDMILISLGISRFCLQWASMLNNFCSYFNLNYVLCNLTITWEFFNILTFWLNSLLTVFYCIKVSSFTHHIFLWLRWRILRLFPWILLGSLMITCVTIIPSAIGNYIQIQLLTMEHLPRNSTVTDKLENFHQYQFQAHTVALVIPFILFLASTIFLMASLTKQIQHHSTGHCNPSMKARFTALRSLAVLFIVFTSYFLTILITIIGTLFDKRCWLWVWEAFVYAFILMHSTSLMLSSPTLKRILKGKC
Chain of human TAS1R2/TAS1R3 sweet taste receptor heterodimer (human) (Q8TE23 20-839, chain 1 of 2): as the sequence (Q8TE23 20-839, chain 1 of 2) above
Chain of human TAS1R2/TAS1R3 sweet taste receptor heterodimer (human) (Q7RTX0 21-852, chain 2 of 2, further chain): as the sequence (Q7RTX0 21-852, chain 2 of 2) above

increase in mean Fluo-4 calcium fluorescence over baseline after 10 µM cycloheximide [1]: 2570 RFU
increase in mean Fluo-4 calcium fluorescence over baseline after 5 mM phenyl-β-D-glucopyranoside [2]: 3490 RFU
Molecule: wild-type Gα16 (from UniProt P30679 1-374)

increase in mean Fluo-4 calcium fluorescence over baseline after 2.5 mM sucralose [3]: 1300 RFU
Molecule: Gα15

fluorescence signal after 2.5 mM aspartame, acesulfame K or sucralose, relative to wild-type Gα16 [4]: 2 fold vs wild-type Gα16
fluorescence signal after 10 uM cycloheximide, relative to wild-type Gα16 [1]: 5 fold vs wild-type Gα16
B1: Gα16-gustducin44 chimeric G-protein (other)
chain: MARSLTWRCCPWCLTEDEKAAARVDQEINRILLEQKKQDRGELKLLLLGPGESGKSTFIKQMRIIHGAGYSEEERKGFRPLVYQNIFVSMRAMIEAMERLQIPFSRPESKHHASLVMSQDPYKVTTFEKRYAAAMQWLWRDAGIRACYERRREFHLLDSAVYYLSHLERITEEGYVPTAQDVLRSRMPTTGINEYCFSVQKTNLRIVDVGGQKSERKKWIHCFENVIALIYLASLSEYDQCLEENNQENRMKESLALFGTILELPWFKSTSVILFLNKTDILEEKIPTSHLATYFPSFQGPKQDAEAAKRFILDMYTRMYTGCVDGPEGSNLKKEDKEIYSHMTCATDTQNVKFVFDAVTDIIIKENLKDCGLF
